The target of this test is T1, Recombinant human androgen receptor ligand-binding domain (AR-LBD, residues 662-919), DHT-bound (human, UniProt P10275 662-919).
T1 construct: also called AR/NR3C4 LBD; liganded AR-LBD; source: recombinant, expressed as a fusion protein with thioredoxin, purified to homogeneity
As to the kind of experiment: SPR; BIAcore T200, 25 °C; DHT-bound AR-LBD amine-coupled to a CM5 chip at about 6,800 RU, UBA3 peptide as analyte; 50 mM HEPES pH 7.2, 50 mM Li2SO4, 5% glycerol, 1 mM DTT, 5 mM DHT; 1:1 Langmuir model; triplicate. Particulars: both partners purified. On the technique in general: In SPR one partner is held on a chip, and binding of the other changes the refractive index at the surface.

B1: Synthetic UBA3 peptide S59-V72 (LxxLL motif) (peptide)
peptide: STESLQFLLDTCKV
notes: also called UBA3-derived peptide; UBA3 59S-72V peptide; source: synthetic peptide, custom-synthesized at Pepmic
As a reminder, the Kd is the concentration at which binding is half-saturated. In the case of B1, the Kd was 30.6 ± 0.7 nM.

The values are drawn from PMC5303882, “Structure of the homodimeric androgen receptor ligand-binding domain” (Nature Communications, 2017).
